Test results from US20200024330A1.

B1: 4869_K15 (antibody, V domains shown)
VH: QVHLQESGPGLVTPSETLSLTCTVSNGSVSGRFWSWIRQSPGRGLEWIGYFSDTDRSEYNPSLRSRLTLSVDRSKNQLSLRLKSVTAADSATYYCARAQQGKRIYGIVSFGEFFYYYYMDAWGKGTPVTVSS
VL: SLNPLSLAPGATAKIPCGERSRGSRAVQWYQQKPGQAPTLIIYNNQDRPAGVSERFSGNPDVAIGVTATLTISRVEVGDEADYYCHYWDSRSPISWIFGGGTQLTVL
B2: PGT-135 (5343_B08; 5344_E16) (antibody, V domains shown)
VH: QLQMQESGPGLVKPSETLSLSCTVSGDSIRGGEWGDKDYHWGWVRHSAGKGLEWIGSIHWRGTTHYKESLRRRVSMSIDTSRNWFSLRLASVTAADTAVYFCARHRHHDVFMLVPIAGWFDVWGPGVQVTVSS
VL: EIVMTQSPDTLSVSPGETVTLSCRASQNINKNLAWYQYKPGQSPRLVIFETYSKIAAFPARFVASGSGTEFTLTINNMQSEDVAVYYCQQYEEWPRTFGQGTKVDIK
B3: PGT-136 (5329_C19; 5366_P21) (antibody, V domains shown)
VH: QLQLQESGPGLVKPSETLSLTCTVSGGSMRGTDWGENDFHYGWIRQSSAKGLEWIGSIHWRGRTTHYKTSFRSRATLSIDTSNNRFSLTFSFVTAADTAVYYCARHKYHDIFRVVPVAGWFDPWGQGLLVTVSS
VL: EIVMTQSPPTLSVSPGETATLSCRASQNVKNNLAWYQLKPGQAPRLLIFDASSRAGGIPDRFSGSGYGTDFTLTVNSVQSEDFGDYFCQQYEEWPRTFGQGTKVDIK

Columns and labels:
Assay in all cases: cell-based or functional assay
[1] = target: HIV-1 Env of isolate 92BR020 (HIV-1)
[2] = target: HIV-1 Env of isolate 94UG103 (HIV-1)
[3] = target: HIV-1 Env of isolate JR-CSF (HIV-1) (UniProt P20871)
[4] = target: HIV-1 Env of isolate MGRM-C-026 (HIV-1)
[5] = target: HIV-1 92TH021 Env (on pseudovirus) (HIV-1)
[6] = target: HIV-1 92UG005 Env (on pseudovirus) (HIV-1)
[7] = target: HIV-1 92UG024 Env (on pseudovirus) (HIV-1)
[8] = target: HIV-1 93IN905 Env (on pseudovirus) (HIV-1)
[9] = target: HIV-1 93UG077 Env (on pseudovirus) (HIV-1)
[10] = target: HIV-1 94UG103 Env (on pseudovirus) (HIV-1)
[11] = target: HIV-1 APV13 Env (on pseudovirus) (HIV-1)
[12] = target: HIV-1 APV17 Env (on pseudovirus) (HIV-1)
[13] = target: HIV-1 APV6 Env (on pseudovirus) (HIV-1)
[14] = target: HIV-1 CMU02 Env (on pseudovirus) (HIV-1)
[15] = target: HIV-1 JRCSF Env (on pseudovirus) (HIV-1) (UniProt P20871)
[16] = target: HIV-1 JRFL Env (on pseudovirus) (HIV-1)
[17] = target: HIV-1 MGRM-A-010 Env (on pseudovirus) (HIV-1)
[18] = target: HIV-1 MGRM-AG-005 Env (on pseudovirus) (HIV-1)
[19] = target: HIV-1 MGRM-C-026 Env (on pseudovirus) (HIV-1)
[20] = target: HIV-1 MGRM-C-027 Env (on pseudovirus) (HIV-1)
[21] = target: HIV-1 MGRM-C-028 Env (on pseudovirus) (HIV-1)
[22] = target: HIV-1 MGRM-D-001 Env (on pseudovirus) (HIV-1)
[23] = target: HIV-1 MGRM-D-018 Env (on pseudovirus) (HIV-1)
[24] = target: HIV-1 NL43 Env (on pseudovirus) (HIV-1)
[25] = target: aMLV envelope protein (on pseudovirus, negative control) (aMLV)
[26] = target: panel of HIV-1 pseudoviruses of Table 52

Row | Binder | IC50 (ug/ml), pseudovirus neutralization [5] | IC50 (ug/ml), pseudovirus neutralization [6] | IC50 (ug/ml), pseudovirus neutralization [7] | IC50 (ug/ml), pseudovirus neutralization [8] | IC50 (ug/ml), pseudovirus neutralization [9] | IC50 (ug/ml), pseudovirus neutralization [10] | IC50 (ug/ml), pseudovirus neutralization [11] | IC50 (ug/ml), pseudovirus neutralization [12] | IC50 (ug/ml), pseudovirus neutralization [13] | IC50 (ug/ml), pseudovirus neutralization [14] | IC50 (ug/ml), pseudovirus neutralization [15] | IC50 (ug/ml), pseudovirus neutralization [16] | IC50 (ug/ml), pseudovirus neutralization [17] | IC50 (ug/ml), pseudovirus neutralization [18] | IC50 (ug/ml), pseudovirus neutralization [19] | IC50 (ug/ml), pseudovirus neutralization [20] | IC50 (ug/ml), pseudovirus neutralization [21] | IC50 (ug/ml), pseudovirus neutralization [22] | IC50 (ug/ml), pseudovirus neutralization [23] | IC50 (ug/ml), pseudovirus neutralization [24] | also measured
1 | B1 | – | – | – | – | – | – | – | – | – | – | – | – | – | – | – | – | – | – | – | – | Primary Neutralization Index (B cell culture well 4869 K15) [1]: 3.9; Primary Neutralization Index (B cell culture well 4869 K15) [2]: 1.5; Primary Neutralization Index (B cell culture well 4869 K15) [3]: 2.1; Primary Neutralization Index (B cell culture well 4869 K15) [4]: 104
2 | B2 | > 10 µg/mL | > 10 µg/mL | 0.0139 µg/mL | 0.0183 µg/mL | > 10 µg/mL | > 10 µg/mL | 0.545 µg/mL | > 10 µg/mL | > 10 µg/mL | > 10 µg/mL | 0.113 µg/mL | > 10 µg/mL | > 10 µg/mL | > 10 µg/mL | 0.0123 µg/mL | > 10 µg/mL | 2.16 µg/mL | > 10 µg/mL | 0.0433 µg/mL | 6.79 µg/mL | IC50 (ug/ml), pseudovirus neutralization [25]: > 10 µg/mL; % neutralized (viruses of the panel) [26]: 54%; median IC50 (ug/ml), pseudovirus neutralization [26]: 0.11 µg/mL
3 | B3 | > 10 µg/mL | > 10 µg/mL | 0.0915 µg/mL | 0.0135 µg/mL | > 10 µg/mL | > 10 µg/mL | > 10 µg/mL | > 10 µg/mL | > 10 µg/mL | > 10 µg/mL | > 10 µg/mL | > 10 µg/mL | > 10 µg/mL | > 10 µg/mL | 0.0065 µg/mL | > 10 µg/mL | > 10 µg/mL | > 10 µg/mL | > 10 µg/mL | > 10 µg/mL | IC50 (ug/ml), pseudovirus neutralization [25]: > 10 µg/mL; % neutralized (viruses of the panel) [26]: 18%; median IC50 (ug/ml), pseudovirus neutralization [26]: 0.05 µg/mL
